Data published in patent publication US9528993B2, “Agents and methods related to screening for resistance to DR5 and reducing resistance to DR5 agonists” (The UAB Research Foundation, priority 2005, dated 2016).

Assays:
cIAP1 = biological target: T1, cIAP1 (Homo sapiens, UniProt Q13490); test: Co-immunoprecipitation of DDX3 mutant with cIAP1; format: binding
T1 construct: endogenous in cells
Experimental: Anti-DDX3 or anti-TRAIL-R2 antibody was conjugated to Sepharose beads (Sigma). The composition of the TRAIL-R2 DISC was determined as follows. 5×10^6 cells (if not otherwise indicated) were treated with 500 ng/ml of TRA-8 for the indicated time at 37° C. and then lysed in immunoprecipitation-lysis buffer (20 mM Tris-HCl, pH 7.4, 150 mM NaCl, 0.2% NONIDET P40, and 10% glycerol and complete protease inhibitor cock-tail) or lysed without treatment (unstimulated condition). […] After immunoprecipitation, the beads were washed four times with lysis buffer. The beads were then washed five times with 10 mM Tris buffer and resuspended in loading buffer for SDS-PAGE and immunoblotting analyses.

[1] = tested on: TRA-8-resistant tumor cells; test: ATPLITE assay of TRA-8-resistant tumor cells transfected with DDX3ΔCARD; format: cell-based; settings: four lines, adenoviral vector, 500 ng/ml TRA-8 overnight
Experimental: Cytotoxicity analysis of tumor cell susceptibility to TRA-8, 2E12, and TRAIL-mediated apoptosis. Cells (1,000 cells per well) were seeded into 96-well plates in triplicate with eight concentrations (double serial dilutions from 1000 ng/ml) of TRA-8, 2E12, or TRAIL. Cell viability was determined after overnight culture using an ATPLITE™ assay according to the manufacturer's instructions (Packard Instruments, Meriden, Conn.). The results are presented as the precentage of viable cells in treated wells compared to medium control wells.

T1 sequence (Q13490 whole entry): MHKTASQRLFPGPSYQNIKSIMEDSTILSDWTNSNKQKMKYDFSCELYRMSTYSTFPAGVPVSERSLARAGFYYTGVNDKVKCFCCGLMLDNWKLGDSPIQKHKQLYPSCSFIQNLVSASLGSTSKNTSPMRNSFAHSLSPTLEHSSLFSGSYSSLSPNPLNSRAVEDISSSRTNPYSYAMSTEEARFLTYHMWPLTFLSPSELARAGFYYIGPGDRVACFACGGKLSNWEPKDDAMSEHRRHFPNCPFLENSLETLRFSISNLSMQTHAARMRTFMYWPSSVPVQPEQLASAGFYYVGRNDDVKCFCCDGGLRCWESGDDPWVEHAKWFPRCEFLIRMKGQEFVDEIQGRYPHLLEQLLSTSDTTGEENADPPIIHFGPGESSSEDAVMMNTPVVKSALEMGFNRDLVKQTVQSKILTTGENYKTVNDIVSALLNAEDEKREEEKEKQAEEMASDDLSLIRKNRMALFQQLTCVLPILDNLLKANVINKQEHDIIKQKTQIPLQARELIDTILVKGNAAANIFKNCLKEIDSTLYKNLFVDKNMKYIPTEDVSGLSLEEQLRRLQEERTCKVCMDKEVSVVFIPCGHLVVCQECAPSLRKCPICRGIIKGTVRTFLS

interaction with cIAP1 (cIAP1): fails to interact with cIAP1
B1: DDX3ΔCARD: dominant negative mutant DDX3 lacking aa 1-150 (CARD-truncated DDX3) (protein)
chain: FSGGNTGINFEKYDDIPVEATGNNCPPHIESFSDVEMGEIIMGNIELTRYTRPTPVQKHAIPIIKEKRDLMACAQTGSGKTAAFLLPILSQIYSDGPGEALRAMKENGRYGRRKQYPISLVLAPTRELAVQIYEEARKFSYRSRVRPCVVYGGADIGQQIRDLERGCHLLVATPGRLVDMMERGKIGLDFCKYLVLDEADRMLDMGFEPQIRRIVEQDTMPPKGVRHTMMFSATFPKEIQMLARDFLDEYIFLAVGRVGSTSENITQKVVWVEESDKRSFLLDLLNATGKDSLTLVFVETKKGADSLEDFLYHEGYACTSIHGDRSQRDREEALHQFRSGKSPILVATAVAARGLDISNVKHVINFDLPSDIEEYVHRIGRTGRVGNLGLATSFFNERNINITKDLLDLLVEAKQEVPSWLENMAYEHHYKGSSRGRSKSSRFSGGFGARDYRQSSGASSSSFSSSRASSSRSGGGGHGSSRGFGGGGYGGFYNSDGYGGNYNSQGVDWWGN
susceptibility to TRA-8-induced apoptosis [1]: regained their susceptibility to TRA-8-induced apoptosis
